US20070071746A1 (AstraZeneca / MedImmune, published 2007)

B1: human galectin-4 (other, UniProt P56470 1-323, looked up)
chain: MAYVPAPGYQPTYNPTLPYYQPIPGGLNVGMSVYIQGVASEHMKRFFVNFVVGQDPGSDVAFHFNPRFDGWDKVVFNTLQGGKWGSEERKRSMPFKKGAAFELVFIVLAEHYKVVVNGNPFYEYGHRLPLQMVTHLQVDGDLQLQSINFIGGQPLRPQGPPMMPPYPGPGHCHQQLNSLPTMEGPPTFNPPVPYFGRLQGGLTARRTIIIKGYVPPTGKSFAINFKVGSSGDIALHINPRMGNGTVVRNSLLNGSWGSEEKKITHNPFGPGQFFDLSIRCGLDRFKVYANGQHLFDFAHRLSAFQRVDTLEIQGDVTLSYVQI
notes: also called gal-4
B2: human acidic mammalian chitinase (AMCase), full length (enzyme)
chain: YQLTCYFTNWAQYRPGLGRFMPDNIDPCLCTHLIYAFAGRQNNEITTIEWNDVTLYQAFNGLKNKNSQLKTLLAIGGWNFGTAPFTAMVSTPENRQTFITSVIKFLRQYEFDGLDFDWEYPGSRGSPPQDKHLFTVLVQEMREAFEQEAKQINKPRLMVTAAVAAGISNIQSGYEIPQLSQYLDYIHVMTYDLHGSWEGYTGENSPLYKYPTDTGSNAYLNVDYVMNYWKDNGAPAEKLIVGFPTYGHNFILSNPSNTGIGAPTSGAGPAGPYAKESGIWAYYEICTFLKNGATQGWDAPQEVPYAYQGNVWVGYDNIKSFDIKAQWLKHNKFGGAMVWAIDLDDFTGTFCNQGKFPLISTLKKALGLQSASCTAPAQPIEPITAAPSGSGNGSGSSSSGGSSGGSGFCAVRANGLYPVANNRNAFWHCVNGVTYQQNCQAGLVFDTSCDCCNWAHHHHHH
notes: Recombinant from HEK293; non-tagged versions also made; Biotin labeled in the galectin ELISA; also called hAMCase; human AMCase
B8: human AMCase C-terminally truncated, lacking the chitin binding domain (enzyme)
chain: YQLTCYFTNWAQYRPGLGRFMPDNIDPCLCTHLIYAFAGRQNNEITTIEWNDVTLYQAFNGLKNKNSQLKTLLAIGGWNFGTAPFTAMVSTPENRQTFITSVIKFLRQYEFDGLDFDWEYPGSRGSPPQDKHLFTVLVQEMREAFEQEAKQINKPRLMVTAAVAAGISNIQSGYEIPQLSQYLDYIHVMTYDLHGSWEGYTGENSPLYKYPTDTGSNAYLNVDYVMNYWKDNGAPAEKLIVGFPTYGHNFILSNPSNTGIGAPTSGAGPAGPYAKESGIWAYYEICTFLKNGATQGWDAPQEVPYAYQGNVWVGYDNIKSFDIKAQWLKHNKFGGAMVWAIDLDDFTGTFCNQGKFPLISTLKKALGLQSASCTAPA
notes: Biotin labeled in the galectin ELISA; also called hAMCase TR

How the values were obtained:
[1] = target: B2; test: ELISA: galectin immobilised on the plate, serial dilutions of biotin-labelled AMCase, streptavidin-HRP, TMB, A450
Procedure: (§1) C/CLP-Galectin Interaction ELISA: Galectin is immobilized on a microtiter plate in DPBS over night at 2-8° C. The plates are then washed with DPBS, 0.1% Tween 20 and blocked for 1 hour at room temperature. Serial dilutions of biotin labeled AMCase are added to each well and incubated for ˜1 hour at room temperature followed by HRP labeled streptavidin. Horseradish peroxydase activity is detected with TMB substrate (KPL, MD) and the reaction is quenched with 1% H2SO4. The absorbance is read at 450 nm.

[2] = target: T1, human galectin-3 (human, UniProt P17931 2-250); test: as above
T1 construct: also called gal-3; LGALS3
Procedure: as §1

[3] = target: B2; test: ELISA
[4] = target: T2, mouse chitotriosidase (mouse, UniProt Q9D7Q1 22-464); test: ELISA
T2 construct: Recombinant from HEK293; non-tagged versions also made; also called mChT; mouse ChT

[5] = target: T3, mouse AMCase truncated form lacking the C-terminal chitin binding domain (mouse, UniProt Q91XA9 22-398, limits assumed); test: ELISA
T3 construct: also called mAMCase TR

[6] = target: B8; test: ELISA
[7] = target: T4, human YKL-39 (human, UniProt Q15782 27-390); test: ELISA
T4 construct: Recombinant from HEK293; non-tagged versions also made; also called hYKL-39; chondrocyte protein 39
T4 sequence: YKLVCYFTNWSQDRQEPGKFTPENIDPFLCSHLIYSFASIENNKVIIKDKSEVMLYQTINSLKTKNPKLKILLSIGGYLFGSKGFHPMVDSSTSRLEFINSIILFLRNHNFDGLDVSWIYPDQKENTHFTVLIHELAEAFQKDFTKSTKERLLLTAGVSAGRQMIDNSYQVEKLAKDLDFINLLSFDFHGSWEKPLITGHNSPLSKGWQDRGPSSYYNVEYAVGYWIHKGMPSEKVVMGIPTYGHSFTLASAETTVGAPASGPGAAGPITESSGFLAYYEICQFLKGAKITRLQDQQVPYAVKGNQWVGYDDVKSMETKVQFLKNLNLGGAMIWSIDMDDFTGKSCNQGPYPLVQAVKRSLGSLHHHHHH

[8] = target: T5, mouse YKL-40/BRP-39 (mouse, UniProt Q61362 30-389); test: ELISA
T5 construct: Recombinant from HEK293; non-tagged versions also made; also called mYKL40/BRP39; mYKL-40

[9] = target: T6, human YKL-40 (human, UniProt P36222 22-383); test: ELISA
T6 construct: Recombinant from HEK293; non-tagged versions also made; also called hYKL-40; chitinase 3-like 1

[10] = target: T7, human chitotriosidase (human, UniProt Q13231 22-466); test: ELISA
T7 construct: Recombinant from HEK293; non-tagged versions also made; also called hChT; ChT

[11] = target: T8, mouse AMCase D136A (mouse, UniProt Q91XA9 22-473); test: ELISA; +++ = 2.50 to 3.99 OD at 62.5 ng/ml
T8 construct: Full length point mutant without chitinase activity; also called mAMCase D136A

[12] = target: T9, mouse AMCase E140A (mouse, UniProt Q91XA9 22-473); test: ELISA; +++ = 2.50 to 3.99 OD at 62.5 ng/ml
T9 construct: Full length point mutant without chitinase activity; also called mAMCase E140A

[13] = target: T10, mouse acidic mammalian chitinase (AMCase), full length (mouse, UniProt Q91XA9 22-473); test: ELISA; +++ = 2.50 to 3.99 OD at 62.5 ng/ml
T10 construct: Recombinant, secreted from HEK293 cells and purified by its His tag; Biotin labeled in the galectin ELISA; also called mAMCase; mouse AMCase

[14] = target: T10, mouse acidic mammalian chitinase …; test: ELISA (data not shown)
[15] = target: B8; test: ELISA: galectin immobilised on the plate, serial dilutions of biotin-labelled C-terminally truncated human AMCase, A450
Procedure: as §1

[16] = target: T11, Ym2 (mouse, UniProt Q91Z98 22-402); test: ELISA
T11 construct: Recombinant from HEK293; non-tagged versions also made; also called chitinase 3-like 4

[17] = target: T12, Ym1 (mouse, UniProt O35744 22-398); test: ELISA
T12 construct: Recombinant from HEK293; non-tagged versions also made; also called chitinase 3-like 3; ECF-L

[18] = target: B2; test: ELISA: galectin immobilised on the plate, serial dilutions of biotin-labelled full length human AMCase, A450
Procedure: as §1

[19] = target: B1; test: ELISA: galectin immobilised on the plate, serial dilutions of biotin-labelled AMCase, streptavidin-HRP, TMB, A450
Procedure: as §1

T10 sequence (Q91XA9 other isoform, or with tags, fused parts or gaps limits assumed): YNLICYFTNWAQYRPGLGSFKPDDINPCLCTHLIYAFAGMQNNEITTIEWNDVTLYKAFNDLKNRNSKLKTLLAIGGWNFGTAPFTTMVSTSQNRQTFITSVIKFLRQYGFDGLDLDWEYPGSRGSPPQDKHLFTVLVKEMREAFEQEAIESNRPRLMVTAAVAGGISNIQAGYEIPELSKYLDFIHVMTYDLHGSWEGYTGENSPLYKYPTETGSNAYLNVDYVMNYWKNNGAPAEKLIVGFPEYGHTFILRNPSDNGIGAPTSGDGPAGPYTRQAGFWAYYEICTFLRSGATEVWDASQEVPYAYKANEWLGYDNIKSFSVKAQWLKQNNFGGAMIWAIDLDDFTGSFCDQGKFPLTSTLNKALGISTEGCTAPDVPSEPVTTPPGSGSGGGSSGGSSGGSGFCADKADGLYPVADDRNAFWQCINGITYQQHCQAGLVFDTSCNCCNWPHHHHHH
T5 sequence (Q61362 other isoform, or with tags, fused parts or gaps limits assumed): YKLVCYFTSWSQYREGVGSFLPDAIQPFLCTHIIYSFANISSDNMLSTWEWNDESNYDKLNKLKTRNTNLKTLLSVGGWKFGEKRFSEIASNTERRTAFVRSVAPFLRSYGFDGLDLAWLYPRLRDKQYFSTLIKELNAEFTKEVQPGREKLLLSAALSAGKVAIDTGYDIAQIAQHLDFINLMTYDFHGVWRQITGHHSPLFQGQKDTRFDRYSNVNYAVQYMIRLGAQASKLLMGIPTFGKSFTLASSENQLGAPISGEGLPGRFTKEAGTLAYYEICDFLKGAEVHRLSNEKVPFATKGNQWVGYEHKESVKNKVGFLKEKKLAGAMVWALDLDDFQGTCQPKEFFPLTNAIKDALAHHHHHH
T2 sequence (Q9D7Q1 other isoform, or with tags, fused parts or gaps limits assumed): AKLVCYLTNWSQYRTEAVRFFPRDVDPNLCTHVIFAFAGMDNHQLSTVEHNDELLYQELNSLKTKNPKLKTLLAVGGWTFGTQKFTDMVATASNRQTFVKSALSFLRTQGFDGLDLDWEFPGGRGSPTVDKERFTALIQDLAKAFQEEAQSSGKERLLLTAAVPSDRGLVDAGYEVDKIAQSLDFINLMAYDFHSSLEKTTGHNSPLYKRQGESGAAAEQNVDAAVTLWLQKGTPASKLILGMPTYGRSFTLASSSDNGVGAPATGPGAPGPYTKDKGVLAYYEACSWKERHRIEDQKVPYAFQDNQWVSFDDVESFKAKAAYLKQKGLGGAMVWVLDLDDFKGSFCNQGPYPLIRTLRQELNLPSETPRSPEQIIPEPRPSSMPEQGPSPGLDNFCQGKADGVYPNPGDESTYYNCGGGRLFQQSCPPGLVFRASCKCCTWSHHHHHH
T7 sequence (Q13231 other isoform, or with tags, fused parts or gaps limits assumed): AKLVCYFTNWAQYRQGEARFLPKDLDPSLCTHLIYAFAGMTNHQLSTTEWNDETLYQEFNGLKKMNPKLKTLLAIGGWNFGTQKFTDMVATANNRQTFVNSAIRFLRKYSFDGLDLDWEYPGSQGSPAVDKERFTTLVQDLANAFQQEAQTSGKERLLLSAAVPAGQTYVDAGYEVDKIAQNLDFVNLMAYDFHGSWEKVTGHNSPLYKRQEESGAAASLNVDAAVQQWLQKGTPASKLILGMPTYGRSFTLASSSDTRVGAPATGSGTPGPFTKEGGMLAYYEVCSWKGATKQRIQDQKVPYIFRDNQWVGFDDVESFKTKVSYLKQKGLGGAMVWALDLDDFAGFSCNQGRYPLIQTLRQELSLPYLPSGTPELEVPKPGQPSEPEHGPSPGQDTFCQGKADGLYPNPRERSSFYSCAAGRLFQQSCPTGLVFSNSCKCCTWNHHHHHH
T3 sequence (Q91XA9 22-398 limits assumed): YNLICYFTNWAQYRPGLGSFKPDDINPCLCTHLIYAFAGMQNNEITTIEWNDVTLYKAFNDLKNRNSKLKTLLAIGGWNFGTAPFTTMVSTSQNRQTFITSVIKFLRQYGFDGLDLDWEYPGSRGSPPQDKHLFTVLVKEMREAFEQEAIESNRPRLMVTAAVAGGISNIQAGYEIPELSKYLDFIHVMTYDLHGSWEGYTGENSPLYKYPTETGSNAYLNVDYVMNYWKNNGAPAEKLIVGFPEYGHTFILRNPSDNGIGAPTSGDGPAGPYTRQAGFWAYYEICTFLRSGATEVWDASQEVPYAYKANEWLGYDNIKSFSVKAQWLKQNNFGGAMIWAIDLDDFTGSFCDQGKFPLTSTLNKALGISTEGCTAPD
T6 sequence (P36222 other isoform, or with tags, fused parts or gaps limits assumed): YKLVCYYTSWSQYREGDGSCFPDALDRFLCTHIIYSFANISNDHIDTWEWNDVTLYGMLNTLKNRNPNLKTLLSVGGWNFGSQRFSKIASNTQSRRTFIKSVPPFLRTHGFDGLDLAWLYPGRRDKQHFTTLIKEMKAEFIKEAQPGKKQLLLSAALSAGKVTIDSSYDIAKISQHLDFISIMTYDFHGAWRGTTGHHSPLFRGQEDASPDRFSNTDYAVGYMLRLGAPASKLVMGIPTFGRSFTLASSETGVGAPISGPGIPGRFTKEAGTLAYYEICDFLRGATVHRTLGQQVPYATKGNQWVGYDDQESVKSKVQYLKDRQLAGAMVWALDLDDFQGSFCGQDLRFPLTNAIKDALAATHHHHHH
T1 sequence (P17931 2-250 limits assumed): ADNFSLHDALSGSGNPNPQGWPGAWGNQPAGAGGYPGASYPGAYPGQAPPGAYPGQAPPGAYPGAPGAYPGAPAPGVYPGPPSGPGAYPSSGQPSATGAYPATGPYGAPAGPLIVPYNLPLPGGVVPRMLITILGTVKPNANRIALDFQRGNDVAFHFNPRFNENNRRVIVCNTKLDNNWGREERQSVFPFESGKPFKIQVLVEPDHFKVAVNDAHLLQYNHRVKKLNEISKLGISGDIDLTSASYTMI
T8 sequence (Q91XA9 22-473 D136A limits assumed): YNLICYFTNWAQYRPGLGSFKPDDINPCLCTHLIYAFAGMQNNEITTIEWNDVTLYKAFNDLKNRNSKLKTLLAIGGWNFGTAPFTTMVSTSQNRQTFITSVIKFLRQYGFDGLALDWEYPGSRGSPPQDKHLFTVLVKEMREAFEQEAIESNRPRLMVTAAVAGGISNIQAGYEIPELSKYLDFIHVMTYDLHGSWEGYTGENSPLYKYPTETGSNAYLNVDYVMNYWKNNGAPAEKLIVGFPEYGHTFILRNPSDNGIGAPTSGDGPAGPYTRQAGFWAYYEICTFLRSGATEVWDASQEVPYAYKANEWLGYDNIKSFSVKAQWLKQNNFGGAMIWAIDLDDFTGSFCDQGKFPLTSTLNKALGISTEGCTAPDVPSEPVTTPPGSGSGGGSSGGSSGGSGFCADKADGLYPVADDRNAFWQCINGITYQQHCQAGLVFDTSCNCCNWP
T9 sequence (Q91XA9 22-473 E140A limits assumed): as the sequence (Q91XA9 22-473 D136A limits assumed) above, with A115D, E119A counted along it
T11 sequence (Q91Z98 other isoform, or with tags, fused parts or gaps limits assumed): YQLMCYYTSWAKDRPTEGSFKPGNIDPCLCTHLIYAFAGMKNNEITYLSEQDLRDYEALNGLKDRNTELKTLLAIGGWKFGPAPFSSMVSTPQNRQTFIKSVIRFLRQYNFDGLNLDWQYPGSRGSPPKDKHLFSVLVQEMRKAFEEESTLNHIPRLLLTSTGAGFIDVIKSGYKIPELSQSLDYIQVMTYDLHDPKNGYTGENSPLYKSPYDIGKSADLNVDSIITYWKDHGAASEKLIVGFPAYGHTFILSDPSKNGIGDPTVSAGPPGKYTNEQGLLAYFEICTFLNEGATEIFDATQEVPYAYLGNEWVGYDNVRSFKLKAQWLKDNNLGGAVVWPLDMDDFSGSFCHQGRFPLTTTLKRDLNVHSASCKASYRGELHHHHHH
T12 sequence (O35744 other isoform, or with tags, fused parts or gaps limits assumed): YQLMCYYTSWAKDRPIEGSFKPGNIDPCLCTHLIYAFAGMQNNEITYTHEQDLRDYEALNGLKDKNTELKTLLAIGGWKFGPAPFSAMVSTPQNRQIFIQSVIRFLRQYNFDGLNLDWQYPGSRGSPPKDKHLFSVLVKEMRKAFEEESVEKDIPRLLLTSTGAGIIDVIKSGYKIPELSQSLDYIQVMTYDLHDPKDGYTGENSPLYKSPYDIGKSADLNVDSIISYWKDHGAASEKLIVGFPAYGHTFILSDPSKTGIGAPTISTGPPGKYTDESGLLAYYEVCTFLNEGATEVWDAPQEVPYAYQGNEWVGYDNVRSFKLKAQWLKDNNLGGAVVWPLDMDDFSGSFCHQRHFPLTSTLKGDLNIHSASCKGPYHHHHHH

Question: Does B1 bind [1]?
Answer: Result: binds

Question: For B2, which “EC50 (read off the curve)” value [2] is on record?
Answer: Its value is about 0.06 mg/L.

B3: M5 (antibody, V domains shown)
VH: EVQLLESGGGLVQPGGSLRLSCAASGFTFSKYLMQWVRQAPGKGLEWVSSIVPSGGETVYADSVKGRFTISRDNSKNTLYLQMNSLRAEDTAVYYCARSGTYGASRYWGQGTLVTVSS
VL: DIQMTQSPLSLSVSVGQSASISCRSSHSLLYSDGNTYINWFHQRPGQSPRRLIHMVSKRDSGVPDRFSGSGSGTDFTLKISRAEAEDVGVYYCMQATYFPLTFGGGTRVEIK
notes: Fully human anti-AMCase antibody from a phage display library, converted to full length IgG
Question: Does B3 bind [3]?
Answer: Result: no binding

Question: Does B3 bind [4]?
Answer: Result: no binding

Question: Does B3 bind [5]?
Answer: Result: no binding

Question: Does B3 bind [6]?
Answer: Result: no binding

Question: Does B3 bind [7]?
Answer: Result: no binding

Question: Does B3 bind [8]?
Answer: Result: no binding

Question: Does B3 bind [9]?
Answer: Result: no binding

Question: Does B3 bind [10]?
Answer: Result: no binding

Question: And the “ELISA OD at 62.5 ng/ml antibody” value [11]?
Answer: Its value is 2.5 to 3.99 od.

Question: What about the “ELISA OD at 62.5 ng/ml antibody” value [12] of the same binder?
Answer: The value was 2.5 to 3.99 od.

Question: What about the “ELISA OD at 62.5 ng/ml antibody” value [13] of the same binder?
Answer: Its value is 2.5 to 3.99 od.

B4: mouse galectin-4 (other, UniProt Q8K419 1-326, looked up)
chain: MAYVPAPGYQPTYNPTLPYKRPIPGGLSVGMSVYIQGMAKENMRRFHVNFAVGQDDGADVAFHFNPRFDGWDKVVFNTMQSGQWGKEEKKKSMPFQKGKHFELVFMVMPEHYKVVVNGNSFYEYGHRLPVQMVTHLQVDGDLELQSINFLGGQPAAAPYPGAMTIPAYPAGSPGYNPPQMNTLPVMTGPPVFNPRVPYVGALQGGLTVRRTIIIKGYVLPTARNFVINFKVGSSGDIALHLNPRIGDSVVRNSFMNGSWGAEERKVAYNPFGPGQFFDLSIRCGMDRFKVFANGQHLFDFSHRFQAFQMVDTLEINGDITLSYVQI
notes: also called mGal-4
Question: Does B4 bind [14]?
Answer: Result: binds

B5: galectin 8 (other, UniProt O00214 1-317, looked up)
chain: MMLSLNNLQNIIYNPVIPFVGTIPDQLDPGTLIVIRGHVPSDADRFQVDLQNGSSMKPRADVAFHFNPRFKRAGCIVCNTLINEKWGREEITYDTPFKREKSFEIVIMVLKDKFQVAVNGKHTLLYGHRIGPEKIDTLGIYGKVNIHSIGFSFSSDLQSTQASSLELTEISRENVPKSGTPQLRLPFAARLNTPMGPGRTVVVKGEVNANAKSFNVDLLAGKSKDIALHLNPRLNIKAFVRNSFLQESWGEEERNITSFPFSPGMYFEMIIYCDVREFKVAVNGVHSLEYKHRFKELSSIDTLEINGDIHLLEVRSW
notes: also called LGALS8
Question: Does B5 bind [15]?
Answer: Result: no binding (tested: 10 ug/ml)

B6: M1 (antibody, V domains shown)
VH: EVQLLESGGGLVQPGGSLRLSCAASGFTFSTYGMDWVRQAPGKGLEWVSYISPSGGYTMYADSVKGRFTISRDNSKNTLYLQMNSLRAEDTAVYYCARHSPRSAGANAFDIWGQGTMVTVSS
VL: DIQMTQSPATLSVSPGERATLSCRASQSVSSNLAWYQQKPGQAPRLLIYGASTRATGIPARFSGSGSGTEFTLTISSLQSEDFAVYYCQQYGSSLWTFGQGTKVEIK
notes: Fully human anti-AMCase antibody from phage display, converted to full length IgG
Question: Does B6 bind [3]?
Answer: Result: no binding

Question: Does B6 bind [4]?
Answer: Result: no binding

Question: Does B6 bind [5]?
Answer: Result: no binding

Question: Does B6 bind [6]?
Answer: Result: no binding

Question: Does B6 bind [7]?
Answer: Result: no binding

Question: Does B6 bind [8]?
Answer: Result: no binding

Question: Does B6 bind [16]?
Answer: Result: no binding

Question: Does B6 bind [9]?
Answer: Result: no binding

Question: Does B6 bind [10]?
Answer: Result: no binding

Question: Does B6 bind [17]?
Answer: Result: no binding

B7: galectin 2 (other, UniProt P05162 1-132, looked up)
chain: MTGELEVKNMDMKPGSTLKITGSIADGTDGFVINLGQGTDKLNLHFNPRFSESTIVCNSLDGSNWGQEQREDHLCFSPGSEVKFTVTFESDKFKVKLPDGHELTFPNRLGHSHLSYLSVRGGFNMSSFKLKE
Question: Which results are given for B7?
Answer: binding result [15]: no binding (tested: 10 ug/ml); binding result [18]: no binding (tested: 10 ug/ml)

Question: For B8, which “EC50 (read off the curve)” value [19] is on record?
Answer: The value was about 0.1 mg/L.

B9: mouse galectin-3 (other, UniProt P16110 2-264, looked up)
chain: ADSFSLNDALAGSGNPNPQGYPGAWGNQPGAGGYPGAAYPGAYPGQAPPGAYPGQAPPGAYPGQAPPSAYPGPTAPGAYPGPTAPGAYPGQPAPGAFPGQPGAPGAYPQCSGGYPAAGPYGVPAGPLTVPYDLPLPGGVMPRMLITIMGTVKPNANRIVLDFRRGNDVAFHFNPRFNENNRRVIVCNTKQDNNWGKEERQSAFPFESGKPFKIQVLVEADHFKVAVNDAHLLQYNHRMKNLREISQLGISGDITLTSANHAMI
notes: also called mGal-3
Question: Does B9 bind [14]?
Answer: Result: binds
